Laboratory results from patent US20250002593A1 (INMAGENE PTE, published 2025).
Where two headings read alike, the source gives them in different places. Each block holds one binder with its values, some of them ahead of it.

Assays:
[1] = biological target: T1, membrane hIL-36R (human, UniProt Q9HB29 20-575); experiment: cell-based or functional assay
T1 sequence: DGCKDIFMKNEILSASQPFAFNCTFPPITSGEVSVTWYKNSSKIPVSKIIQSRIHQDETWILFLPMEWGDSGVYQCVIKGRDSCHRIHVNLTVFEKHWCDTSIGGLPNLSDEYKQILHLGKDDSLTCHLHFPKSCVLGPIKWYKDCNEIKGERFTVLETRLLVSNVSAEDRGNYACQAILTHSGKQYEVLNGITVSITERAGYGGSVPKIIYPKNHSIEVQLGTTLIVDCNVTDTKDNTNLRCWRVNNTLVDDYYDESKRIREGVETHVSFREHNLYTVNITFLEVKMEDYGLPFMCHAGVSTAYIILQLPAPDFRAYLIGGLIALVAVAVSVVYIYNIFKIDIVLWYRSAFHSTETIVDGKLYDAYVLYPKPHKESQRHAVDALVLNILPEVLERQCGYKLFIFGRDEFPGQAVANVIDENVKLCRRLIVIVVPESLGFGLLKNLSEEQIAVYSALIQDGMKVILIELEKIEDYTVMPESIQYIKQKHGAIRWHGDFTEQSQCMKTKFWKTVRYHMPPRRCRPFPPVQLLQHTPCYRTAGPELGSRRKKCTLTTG

[2] = biological target: T2, mouse IL-36R (R&D, Cat #2354-RP) (mouse, UniProt Q9ERS7 22-338, limits assumed); experiment: BLI, antibody on Protein A sensor, recombinant mouse IL-36R as analyte
T2 construct: Bought; also called recombinant mouse IL-36R protein
T2 sequence (looked up): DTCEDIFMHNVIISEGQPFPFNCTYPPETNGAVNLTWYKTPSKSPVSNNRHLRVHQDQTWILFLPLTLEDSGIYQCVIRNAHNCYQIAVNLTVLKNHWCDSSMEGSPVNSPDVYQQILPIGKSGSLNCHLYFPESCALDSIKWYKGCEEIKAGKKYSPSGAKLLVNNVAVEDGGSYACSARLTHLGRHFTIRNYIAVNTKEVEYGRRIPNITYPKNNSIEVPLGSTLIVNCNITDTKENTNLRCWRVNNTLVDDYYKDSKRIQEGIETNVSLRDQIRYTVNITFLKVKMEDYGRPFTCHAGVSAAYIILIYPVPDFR

[3] = biological target: T3, Recombinant hIL-36R protein (Acrobio, Cat #IL2-H52H6) (human, UniProt Q9HB29 20-335); experiment: BLI as in Example 2, antibody on Protein A sensor, hIL-36R analyte
T3 construct: Bought soluble protein; also called recombinant human IL-36R protein
T3 sequence: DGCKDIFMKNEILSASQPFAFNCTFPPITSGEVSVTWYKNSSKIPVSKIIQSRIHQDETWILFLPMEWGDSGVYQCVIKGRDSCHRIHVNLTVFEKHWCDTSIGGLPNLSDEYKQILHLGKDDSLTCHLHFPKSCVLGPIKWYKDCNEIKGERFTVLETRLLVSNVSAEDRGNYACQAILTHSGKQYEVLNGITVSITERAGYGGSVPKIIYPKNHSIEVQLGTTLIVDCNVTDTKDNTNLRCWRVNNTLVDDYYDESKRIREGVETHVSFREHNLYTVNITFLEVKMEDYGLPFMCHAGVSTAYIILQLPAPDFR

[4] = biological target: T4, Recombinant cynomolgus IL36R protein (Acrobio, Cat #IL2-C52H5) (cynomolgus, UniProt A0A2K5WSK9 20-335); experiment: BLI, antibody on Protein A sensor, recombinant cynomolgus IL36R as analyte
T4 construct: Bought; also called cyno IL-36R
T4 sequence: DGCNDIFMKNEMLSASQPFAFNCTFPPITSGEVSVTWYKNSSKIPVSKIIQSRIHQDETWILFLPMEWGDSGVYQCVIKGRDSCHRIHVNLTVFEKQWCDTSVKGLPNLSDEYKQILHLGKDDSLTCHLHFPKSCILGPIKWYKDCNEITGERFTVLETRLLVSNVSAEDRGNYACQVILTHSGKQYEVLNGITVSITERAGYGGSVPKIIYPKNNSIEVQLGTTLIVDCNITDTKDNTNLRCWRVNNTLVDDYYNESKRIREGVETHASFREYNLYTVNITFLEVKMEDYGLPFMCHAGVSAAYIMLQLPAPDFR

[5] = biological target: T1, membrane hIL-36R; experiment: cell-based or functional assay; remark: listed apart in the source
[6] = biological target: T5, recombinant hIL-36R-his (human, UniProt Q9HB29 20-337); experiment: ELISA on coated recombinant hIL36R protein (1 µg/ml), detection with HRP anti-hIgG; unit taken from the x axis Ab(µg/mL)
T5 construct: Residues 1-337 (extracellular domain) are stated for the IL-36R-his used as immunogen; The range includes the signal peptide; no cleavage site is stated; also called recombinant hIL36R protein; recombinant human IL-36R-his protein; not shown: His tag
T5 sequence: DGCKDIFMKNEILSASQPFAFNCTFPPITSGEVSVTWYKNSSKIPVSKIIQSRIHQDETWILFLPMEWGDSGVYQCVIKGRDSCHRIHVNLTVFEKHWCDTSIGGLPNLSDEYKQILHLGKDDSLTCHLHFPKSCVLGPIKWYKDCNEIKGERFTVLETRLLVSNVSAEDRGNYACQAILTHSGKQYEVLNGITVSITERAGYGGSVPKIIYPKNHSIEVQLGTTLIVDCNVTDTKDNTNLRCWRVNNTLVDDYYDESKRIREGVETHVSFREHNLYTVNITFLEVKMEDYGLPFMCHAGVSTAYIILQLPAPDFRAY

[7] = biological target: T1, membrane hIL-36R; experiment: flow cytometry on HEK293 cells transfected with pcDNA3.1-hIL36R, FITC anti-hIgG, MFI (median); unit taken from the x axis
[8] = biological target: T1, membrane hIL-36R; experiment: cell-based or functional assay; remark: listed apart in the source
[9] = biological target: T1, membrane hIL-36R; experiment: cell-based or functional assay; remark: listed apart in the source
[10] = biological target: T1, membrane hIL-36R; experiment: cell-based or functional assay; remark: listed apart in the source
[11] = biological target: T1, membrane hIL-36R; experiment: cell-based or functional assay; remark: listed apart in the source
[12] = biological target: T3, Recombinant hIL-36R protein (Acrobio, …); experiment: SPR (Biacore T200, 25 C), antibody captured by Fc, hIL-36R analyte
[13] = biological target: T1, membrane hIL-36R; experiment: cell-based or functional assay; remark: listed apart in the source
[14] = biological target: T1, membrane hIL-36R; experiment: cell-based or functional assay; remark: listed apart in the source
[15] = biological target: T6, Recombinant hIL1R1 protein (human, UniProt P14778 18-332, limits assumed); experiment: ELISA on coated recombinant hIL1R1 protein, detection with HRP anti-hIgG
T6 sequence (looked up): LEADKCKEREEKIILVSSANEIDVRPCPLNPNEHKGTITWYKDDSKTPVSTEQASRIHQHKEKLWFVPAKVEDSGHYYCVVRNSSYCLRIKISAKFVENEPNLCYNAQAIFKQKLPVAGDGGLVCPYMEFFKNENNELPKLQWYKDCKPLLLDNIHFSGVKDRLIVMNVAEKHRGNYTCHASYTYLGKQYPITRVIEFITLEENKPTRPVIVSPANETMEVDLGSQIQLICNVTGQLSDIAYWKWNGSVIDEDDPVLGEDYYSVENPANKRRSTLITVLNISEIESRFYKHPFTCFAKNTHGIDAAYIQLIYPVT

IC50, IL-36R reporter assay: inhibition of ligand induced luminescence in Jurkat-IL36R-IL1Racp-NFkB-luc cells [1]: 0.0637 mg/L
binding result [2]: no binding (tested: up to 100 nM IL-36R)
Kd [3]: 4.55 nM
koff [3]: 0.000194 s⁻¹
kon [3]: 42700 M⁻¹ s⁻¹
binding result [4]: no binding (tested: up to 100 nM IL-36R)
B1: 5F7-hu-3 (antibody, V domains shown)
VH: QVQLVESGGGLVKPGGSLRLSCAASGFAFTDYYMNWIRQAPGKGLEWVALIRNKAAGYTIYYSDSVKGRFTISRDNAKSSLYLQMNSLRAEDTAVYYCVRDMTIYDGYYVDYALDYWGQGTLVTVSS
VL: DIVMTQSPSSVSASVGDRVTITCRASQNINIWLSWYQQKPGKAPKLFIYKASNLHTGVPSRFSGSGSGTDFTLTISSLQPEDFATYYCLQSQSYPLTFGQGTKLEIK
notes: Humanized 5F7; also called humanized 5F7

IC50, inhibition of IL-36α induced IL-6 release in primary human epithelial keratinocytes (HEK cells) [panel IL-6] [5]: 0.0982 mg/L
IC50, inhibition of IL-36α induced IL-8 release in primary human epithelial keratinocytes (HEK cells) [panel IL-8] [5]: 0.0684 mg/L
IC50, inhibition of IL-36α induced TNF-α release in primary human epithelial keratinocytes (HEK cells) [panel TNF-α] [5]: 0.027 mg/L
EC50 [6]: 0.0111 mg/L
EC50 [7]: 0.0875 mg/L
IC50, inhibition of IL-36γ induced IL-6 release in primary human epithelial keratinocytes (HEK cells) [panel IL-6] [8]: 0.0138 mg/L
IC50, inhibition of IL-36γ induced IL-8 release in primary human epithelial keratinocytes (HEK cells) [panel IL-8] [8]: 0.0077 mg/L
IC50, inhibition of IL-36γ induced TNF-α release in primary human epithelial keratinocytes (HEK cells) [panel TNF-α] [8]: 0.00575 mg/L
IC50, inhibition of IL-36β induced IL-6 release in primary human epithelial keratinocytes (HEK cells) [panel IL-6] [9]: 0.0229 mg/L
IC50, inhibition of IL-36β induced IL-8 release in primary human epithelial keratinocytes (HEK cells) [panel IL-8] [9]: 0.0293 mg/L
IC50, inhibition of IL-36β induced TNF-α release in primary human epithelial keratinocytes (HEK cells) [panel TNF-α] [9]: 0.0107 mg/L
IC50, IL-36R reporter assay: inhibition of ligand induced luminescence in Jurkat-IL36R-IL1Racp-NFkB-luc cells (printed BI 655130) [1]: 0.0217 mg/L
IC50, inhibition of IL-36α induced IL-8 release in primary human dermal fibroblast (HDF) cells (IL-8 ELISA, OD450) [10]: 0.00361 mg/L
binding result [2]: no binding (tested: up to 100 nM IL-36R)
IC50, inhibition of IL-36α induced IL-8 release in A431 cells (IL-8 ELISA, OD450) [panel IL-36α] [11]: 0.0955 mg/L
IC50, inhibition of IL-36β induced IL-8 release in A431 cells (IL-8 ELISA, OD450) [panel IL-36β] [11]: 0.0532 mg/L
IC50, inhibition of IL-36γ induced IL-8 release in A431 cells (IL-8 ELISA, OD450) [panel IL-36γ] [11]: 0.0065 mg/L
Kd [12]: 0.935 nM
koff [12]: 3.66e-05 s⁻¹
kon [12]: 39200 M⁻¹ s⁻¹
IC50, IL-36R reporter assay: inhibition of IL-36α induced luminescence in Jurkat-IL36R-IL1Racp-NFkB-luc cells [13]: 0.057 nM
IC50, IL-36R reporter assay: inhibition of ligand induced luminescence in Jurkat-IL36R-IL1Racp-NFkB-luc cells [14]: 0.0133 mg/L
binding result [15]: no binding (tested: 1 µg/mL)
B2: BI655130 (antibody, V domains shown)
VH: QVQLVQSGAEVKKPGASVKVSCKASGYSFTSSWIHWVKQAPGQGLEWMGEINPGNVRTNYNENFRNKVTMTVDTSISTAYMELSRLRSDDTAVYYCTVVFYGEPYFPYWGQGTLVTVSS
VL: QIVLTQSPGTLSLSPGERATMTCTASSSVSSSYFHWYQQKPGQAPRLWIYRTSRLASGVPDRFSGSGSGTDFTLTISRLEPEDAATYYCHQFHRSPLTFGAGTKLEIK
notes: also called benchmark antibody
